In assay [1] the target is β3 integrin (human (endogenous in peripheral blood monocytes)) (UniProt P05106).
Assay [2] has as its target β1 integrin (human (endogenous in peripheral blood monocytes)) (UniProt P05556).

β1 integrin (human (endogenous in peripheral blood monocytes)), sequence (P05556 21-798): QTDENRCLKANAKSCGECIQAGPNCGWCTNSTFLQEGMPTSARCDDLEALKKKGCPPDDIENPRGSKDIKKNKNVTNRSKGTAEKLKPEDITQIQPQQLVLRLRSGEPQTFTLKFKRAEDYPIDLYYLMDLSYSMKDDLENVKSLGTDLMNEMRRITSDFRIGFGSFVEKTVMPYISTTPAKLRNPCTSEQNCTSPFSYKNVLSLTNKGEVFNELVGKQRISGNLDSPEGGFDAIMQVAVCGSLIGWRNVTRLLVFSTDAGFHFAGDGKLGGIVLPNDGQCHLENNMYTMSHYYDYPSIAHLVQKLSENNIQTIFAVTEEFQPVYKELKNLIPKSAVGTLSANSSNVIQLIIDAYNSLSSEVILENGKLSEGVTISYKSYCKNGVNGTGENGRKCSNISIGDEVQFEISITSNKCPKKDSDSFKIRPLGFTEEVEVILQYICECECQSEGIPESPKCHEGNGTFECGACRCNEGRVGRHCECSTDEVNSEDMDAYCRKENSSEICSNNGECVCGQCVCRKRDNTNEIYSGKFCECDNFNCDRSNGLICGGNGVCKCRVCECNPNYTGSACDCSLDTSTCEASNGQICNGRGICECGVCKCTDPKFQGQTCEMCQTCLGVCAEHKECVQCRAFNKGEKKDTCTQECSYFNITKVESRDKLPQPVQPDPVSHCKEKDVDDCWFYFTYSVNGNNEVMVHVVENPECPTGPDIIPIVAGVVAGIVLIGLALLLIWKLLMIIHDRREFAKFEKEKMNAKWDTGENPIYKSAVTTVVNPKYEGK
β3 integrin (human (endogenous in peripheral blood monocytes)), sequence (P05106 27-788): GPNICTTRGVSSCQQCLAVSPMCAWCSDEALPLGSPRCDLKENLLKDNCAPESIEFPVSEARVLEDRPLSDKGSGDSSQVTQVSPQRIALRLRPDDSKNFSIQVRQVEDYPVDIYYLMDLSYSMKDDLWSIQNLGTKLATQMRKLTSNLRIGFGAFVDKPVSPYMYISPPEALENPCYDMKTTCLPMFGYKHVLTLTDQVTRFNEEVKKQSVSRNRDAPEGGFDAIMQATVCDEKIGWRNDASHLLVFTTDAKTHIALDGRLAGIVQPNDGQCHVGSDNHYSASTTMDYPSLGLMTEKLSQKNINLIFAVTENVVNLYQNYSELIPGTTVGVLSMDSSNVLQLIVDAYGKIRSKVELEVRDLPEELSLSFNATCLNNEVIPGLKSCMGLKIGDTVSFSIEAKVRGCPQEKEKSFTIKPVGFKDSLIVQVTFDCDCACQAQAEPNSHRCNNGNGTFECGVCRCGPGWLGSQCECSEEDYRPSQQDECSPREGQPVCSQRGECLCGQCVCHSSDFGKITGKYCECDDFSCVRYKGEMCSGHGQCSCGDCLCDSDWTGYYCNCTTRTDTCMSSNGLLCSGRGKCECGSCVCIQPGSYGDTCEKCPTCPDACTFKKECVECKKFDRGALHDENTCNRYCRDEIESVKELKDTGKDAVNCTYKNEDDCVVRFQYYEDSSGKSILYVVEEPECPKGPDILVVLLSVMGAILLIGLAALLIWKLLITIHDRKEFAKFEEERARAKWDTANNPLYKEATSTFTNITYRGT

Consider “HCMV gH/gL/UL128-131 complex of BADrUL131 (from UniProt P12824 24-743; P16832 31-278; P16837 1-171; P16772 1-214)”, for which, in assay [1], the inhibition of BADrUL131 entry into monocytes (internalized vDNA) after pretreatment with 5 µg/ml function blocking anti-β3 integrin antibody amounted to 40%. Moreover, the inhibition of BADrUL131 entry into monocytes (internalized vDNA) after pretreatment with 5 µg/ml function blocking anti-β1 integrin antibody in assay [2] was determined as 75%.

These data come from paper PMC3708883.
